Source: patent US20140302026A1 (published 2014)

B1: human NC-1 (hNC-1) trimer of collagen 18 (other)
chain: SGVRLWATRQAMLGQVHEVPEGWLIFVAEQEELYVRVQNGFRKVQLEARTPLPRGTDNEVAALQPPVVQLHDSNPYPRREHPHPTARPWRADDILASPPRLPEPQPYPGAPHHSSYVHLRPARPTSPPAHSHRDFQPVLHLVALNSPLSGGMRGIRGADFQCFQQARAVGLAGTFRAFLSSRLQDLYSIVRRADRAAVPIVNLKDELLFPSWEALFSGSEGPLKPGARIFSFDGKDVLRHPTWPQKSVWHGSDPNGRRLTESYCETWRTEAPSATGQASSLLGGRLLGQSAASCHHAYIVLCIENSFMTASK
B2: Human VEGF (R&D) (ligand)
chain: APMAEGGGQNHHEVVKFMDVYQRSYCHPIETLVDIFQEYPDEIEYIFKPSCVPLMRCGGCCNDEGLECVPTEESNITMQIMRIKPHQGQHIGEMSFLQHNKCECRPKKDRARQENPCGPCSERRKHLFVQDPQTCKCSCKNTDSRCKARQLELNERTCRCDKPRR

Assays:
[1] = biological target: artificial endostatin dimer (UniProt P39060); test: SPR (Biacore)
[2] = biological target: fibronectin (UniProt P02751 32-2477); test: SPR (Biacore)

Row | Molecule | Kd [1] [nM] | Kd [2] [nM]
1 | fibronectin (from UniProt P02751 32-2477) | 4.84 | 
2 | B1 |  | 8.4
3 | B2 |  | 1.35
